The source of these data is paper doi:10.1101/2021.05.18.444627 (bioRxiv, 2021).

This assay has as its target T1, UL34^(174-194) peptide, unlabelled (HSV-1, UniProt P10218 174-194, N-terminal acetyl; C-terminal amide).
T1 peptide: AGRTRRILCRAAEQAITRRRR
In words: cross-linking.

With Ac-RKSLPPHARK-NH2 [UL31^(41-50) peptide (UL31 mini-MPR)], the binding result was “binds”.

For Ac-RRSRSSAAGGTLGVVRRASRK-NH2 [UL31^(22-42) peptide (middle of the UL31 MPR)], the binding result is “binds”.
